Assay [1] deals with T1, mouse collagen I (mouse, UniProt P11087 152-1207; Q01149 86-1125). The experiment in a line: BLI; analysis by molarity. Background: In BLI a coated tip is dipped into the sample, and binding shifts an interference pattern.
For assay [2], the target named is T2, rat collagen III (rat, UniProt P13941 155-1218).
T2 chain: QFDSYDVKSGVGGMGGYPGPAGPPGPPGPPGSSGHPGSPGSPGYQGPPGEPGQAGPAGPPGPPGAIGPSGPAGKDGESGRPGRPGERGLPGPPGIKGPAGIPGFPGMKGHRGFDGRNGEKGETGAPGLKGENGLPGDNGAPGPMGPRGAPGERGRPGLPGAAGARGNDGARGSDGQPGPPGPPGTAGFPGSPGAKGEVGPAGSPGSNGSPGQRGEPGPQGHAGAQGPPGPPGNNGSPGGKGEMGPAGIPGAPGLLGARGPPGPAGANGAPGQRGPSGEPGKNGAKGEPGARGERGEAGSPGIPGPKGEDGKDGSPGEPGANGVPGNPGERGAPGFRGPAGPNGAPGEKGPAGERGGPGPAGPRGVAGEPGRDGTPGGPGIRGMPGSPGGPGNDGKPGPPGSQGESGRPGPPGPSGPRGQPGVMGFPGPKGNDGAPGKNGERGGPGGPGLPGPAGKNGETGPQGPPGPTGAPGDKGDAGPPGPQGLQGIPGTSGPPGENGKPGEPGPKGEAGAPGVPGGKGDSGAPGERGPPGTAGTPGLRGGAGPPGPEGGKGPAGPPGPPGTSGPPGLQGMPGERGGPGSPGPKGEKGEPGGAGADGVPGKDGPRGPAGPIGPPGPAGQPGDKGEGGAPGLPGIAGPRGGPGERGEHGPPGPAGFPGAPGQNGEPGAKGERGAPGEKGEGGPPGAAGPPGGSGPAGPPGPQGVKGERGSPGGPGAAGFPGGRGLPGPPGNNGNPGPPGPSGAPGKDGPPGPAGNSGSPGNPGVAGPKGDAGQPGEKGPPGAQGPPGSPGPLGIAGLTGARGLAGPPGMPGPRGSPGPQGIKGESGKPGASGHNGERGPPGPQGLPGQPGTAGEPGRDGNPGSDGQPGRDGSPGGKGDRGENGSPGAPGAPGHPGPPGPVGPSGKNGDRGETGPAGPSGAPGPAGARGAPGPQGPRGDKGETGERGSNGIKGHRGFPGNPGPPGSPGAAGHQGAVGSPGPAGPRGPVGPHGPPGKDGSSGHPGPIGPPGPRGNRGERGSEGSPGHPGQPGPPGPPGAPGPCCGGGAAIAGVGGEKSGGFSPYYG
The experiment in a line: BLI; analysis by molarity.

In assay [3] the target is T3, rat collagen I (rat, UniProt P02454 152-1207; P02466 86-1125). In words: BLI; analysis by molarity.
T3 sequence (P02454 152-1207, chain 1 of 2): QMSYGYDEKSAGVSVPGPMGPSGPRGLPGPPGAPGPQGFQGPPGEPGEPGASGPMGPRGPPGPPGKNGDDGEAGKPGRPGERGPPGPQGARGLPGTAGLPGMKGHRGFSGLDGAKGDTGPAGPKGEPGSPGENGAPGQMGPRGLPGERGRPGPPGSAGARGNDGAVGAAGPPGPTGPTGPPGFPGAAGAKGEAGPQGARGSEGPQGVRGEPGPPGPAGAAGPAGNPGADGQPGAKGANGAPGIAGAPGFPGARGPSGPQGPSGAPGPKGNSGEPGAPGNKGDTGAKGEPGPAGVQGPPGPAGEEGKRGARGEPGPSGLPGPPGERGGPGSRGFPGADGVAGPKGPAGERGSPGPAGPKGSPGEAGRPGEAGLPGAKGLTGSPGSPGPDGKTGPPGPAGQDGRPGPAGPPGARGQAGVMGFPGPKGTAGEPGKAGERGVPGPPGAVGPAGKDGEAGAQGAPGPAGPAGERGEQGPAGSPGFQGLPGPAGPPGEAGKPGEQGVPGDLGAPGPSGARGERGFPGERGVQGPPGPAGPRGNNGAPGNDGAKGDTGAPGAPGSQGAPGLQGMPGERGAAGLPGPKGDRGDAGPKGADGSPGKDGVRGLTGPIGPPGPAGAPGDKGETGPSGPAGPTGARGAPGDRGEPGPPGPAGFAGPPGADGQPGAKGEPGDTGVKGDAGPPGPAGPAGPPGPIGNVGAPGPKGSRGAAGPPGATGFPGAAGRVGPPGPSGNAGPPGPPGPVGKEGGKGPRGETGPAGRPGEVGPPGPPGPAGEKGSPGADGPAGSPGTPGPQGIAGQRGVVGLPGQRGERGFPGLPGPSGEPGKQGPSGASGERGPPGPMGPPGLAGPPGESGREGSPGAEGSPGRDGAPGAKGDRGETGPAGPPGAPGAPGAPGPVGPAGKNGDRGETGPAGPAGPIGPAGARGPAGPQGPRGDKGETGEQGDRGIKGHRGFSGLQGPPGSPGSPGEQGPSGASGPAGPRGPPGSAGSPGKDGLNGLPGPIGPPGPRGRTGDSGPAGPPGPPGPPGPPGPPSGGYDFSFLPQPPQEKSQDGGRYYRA
T3 sequence (P02466 86-1125, chain 2 of 2): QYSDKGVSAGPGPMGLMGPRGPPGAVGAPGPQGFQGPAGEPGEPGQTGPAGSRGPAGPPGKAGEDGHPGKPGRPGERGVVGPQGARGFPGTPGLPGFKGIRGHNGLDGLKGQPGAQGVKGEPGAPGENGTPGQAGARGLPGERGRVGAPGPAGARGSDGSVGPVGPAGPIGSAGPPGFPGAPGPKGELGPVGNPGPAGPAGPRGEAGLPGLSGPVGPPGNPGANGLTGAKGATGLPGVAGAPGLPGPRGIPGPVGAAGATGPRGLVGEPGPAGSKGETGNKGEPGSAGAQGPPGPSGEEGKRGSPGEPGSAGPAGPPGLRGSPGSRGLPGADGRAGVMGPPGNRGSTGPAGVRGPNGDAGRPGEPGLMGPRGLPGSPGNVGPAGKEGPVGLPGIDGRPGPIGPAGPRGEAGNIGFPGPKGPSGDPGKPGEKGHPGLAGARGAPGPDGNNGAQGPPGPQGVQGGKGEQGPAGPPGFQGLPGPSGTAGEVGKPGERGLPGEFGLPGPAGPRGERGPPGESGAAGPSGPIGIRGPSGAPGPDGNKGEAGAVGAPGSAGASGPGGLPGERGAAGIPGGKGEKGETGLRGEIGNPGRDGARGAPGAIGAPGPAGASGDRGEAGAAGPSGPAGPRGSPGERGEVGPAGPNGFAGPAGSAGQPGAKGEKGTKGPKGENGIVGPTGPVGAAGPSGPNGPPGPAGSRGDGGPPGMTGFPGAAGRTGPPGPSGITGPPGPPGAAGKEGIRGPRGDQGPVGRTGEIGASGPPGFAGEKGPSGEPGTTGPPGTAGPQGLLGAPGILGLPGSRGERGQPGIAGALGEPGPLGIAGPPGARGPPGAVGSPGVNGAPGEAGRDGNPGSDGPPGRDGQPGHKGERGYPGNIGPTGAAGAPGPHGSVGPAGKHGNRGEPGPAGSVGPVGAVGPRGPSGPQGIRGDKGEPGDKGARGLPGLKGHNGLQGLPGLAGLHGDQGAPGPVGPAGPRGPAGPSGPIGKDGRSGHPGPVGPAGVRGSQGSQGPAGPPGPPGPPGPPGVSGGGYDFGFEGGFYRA
For assay [4], the target named is T4, human collagen III (human, UniProt P02461 154-1221).
T4 chain: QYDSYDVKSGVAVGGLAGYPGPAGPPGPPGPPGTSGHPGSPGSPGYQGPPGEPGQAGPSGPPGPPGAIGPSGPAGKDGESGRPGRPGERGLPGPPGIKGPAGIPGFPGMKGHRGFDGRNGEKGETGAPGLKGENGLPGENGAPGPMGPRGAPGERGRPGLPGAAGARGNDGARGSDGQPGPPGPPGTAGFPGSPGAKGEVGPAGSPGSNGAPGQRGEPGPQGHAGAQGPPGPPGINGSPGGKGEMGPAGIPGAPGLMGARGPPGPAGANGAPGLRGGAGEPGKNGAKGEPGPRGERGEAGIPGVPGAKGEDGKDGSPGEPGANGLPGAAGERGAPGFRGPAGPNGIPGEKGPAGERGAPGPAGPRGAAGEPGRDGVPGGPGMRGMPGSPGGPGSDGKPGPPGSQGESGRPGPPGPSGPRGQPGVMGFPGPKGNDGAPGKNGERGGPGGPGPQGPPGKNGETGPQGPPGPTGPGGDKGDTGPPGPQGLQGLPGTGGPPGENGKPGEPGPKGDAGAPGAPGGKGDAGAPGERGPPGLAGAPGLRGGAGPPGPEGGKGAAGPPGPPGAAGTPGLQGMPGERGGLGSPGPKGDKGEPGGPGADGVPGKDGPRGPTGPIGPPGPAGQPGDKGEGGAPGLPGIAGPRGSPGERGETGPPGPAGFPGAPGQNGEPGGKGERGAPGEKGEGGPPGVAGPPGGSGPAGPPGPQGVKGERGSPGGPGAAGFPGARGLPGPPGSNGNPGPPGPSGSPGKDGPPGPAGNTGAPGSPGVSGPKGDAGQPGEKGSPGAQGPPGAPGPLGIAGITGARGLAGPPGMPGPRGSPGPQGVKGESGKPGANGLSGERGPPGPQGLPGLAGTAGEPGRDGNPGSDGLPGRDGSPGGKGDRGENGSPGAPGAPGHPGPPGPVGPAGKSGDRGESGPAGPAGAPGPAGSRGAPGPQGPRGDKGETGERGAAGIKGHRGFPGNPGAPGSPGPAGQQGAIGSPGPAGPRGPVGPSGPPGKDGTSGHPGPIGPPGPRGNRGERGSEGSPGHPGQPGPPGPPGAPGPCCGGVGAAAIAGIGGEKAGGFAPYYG
In words: BLI; analysis by molarity.

For assay [5], the target named is T5, human collagen I (human, UniProt P02452 162-1218; P08123 80-1119). The experiment in a line: BLI; analysis by molarity.
For assay [6], the target named is T1, mouse collagen I. The experiment in a line: BLI; analysis by binding sites/mol.
Assay [7] addresses T2, rat collagen III. In words: BLI; analysis by binding sites/mol.
Assay [8] concerns the target T3, rat collagen I. The experiment in a line: BLI; analysis by binding sites/mol.
In assay [9] the target is T4, human collagen III. The experiment in a line: BLI; analysis by binding sites/mol.
Assay [10] deals with T5, human collagen I. In words: BLI; analysis by binding sites/mol.
In assay [11] the target is T1, mouse collagen I. In words: BLI; apparent KD, analysis by binding sites/mol.
In assay [12] the target is T2, rat collagen III. In words: BLI; apparent KD, analysis by binding sites/mol.
Assay [13] concerns the target T3, rat collagen I. The experiment in a line: BLI; apparent KD, analysis by binding sites/mol.
Assay [14] has as its target T4, human collagen III. In words: BLI; apparent KD, analysis by binding sites/mol.
For assay [15], the target named is T5, human collagen I. The experiment in a line: BLI; apparent KD, analysis by binding sites/mol.
The target of assay [16] is T1, mouse collagen I. In words: BLI; apparent KD (avidity), analysis by molarity.
Assay [17] has as its target T2, rat collagen III. The experiment in a line: BLI; apparent KD (avidity), analysis by molarity.
Assay [18] has as its target T3, rat collagen I. In words: BLI; apparent KD (avidity), analysis by molarity.
The target in assay [19] is T4, human collagen III. The experiment in a line: BLI; apparent KD (avidity), analysis by molarity.
Assay [20] concerns the target T5, human collagen I. The experiment in a line: BLI; apparent KD (avidity), analysis by molarity.

The koff is the first-order rate constant of dissociation.

T1 sequence (P11087 152-1207, chain 1 of 2): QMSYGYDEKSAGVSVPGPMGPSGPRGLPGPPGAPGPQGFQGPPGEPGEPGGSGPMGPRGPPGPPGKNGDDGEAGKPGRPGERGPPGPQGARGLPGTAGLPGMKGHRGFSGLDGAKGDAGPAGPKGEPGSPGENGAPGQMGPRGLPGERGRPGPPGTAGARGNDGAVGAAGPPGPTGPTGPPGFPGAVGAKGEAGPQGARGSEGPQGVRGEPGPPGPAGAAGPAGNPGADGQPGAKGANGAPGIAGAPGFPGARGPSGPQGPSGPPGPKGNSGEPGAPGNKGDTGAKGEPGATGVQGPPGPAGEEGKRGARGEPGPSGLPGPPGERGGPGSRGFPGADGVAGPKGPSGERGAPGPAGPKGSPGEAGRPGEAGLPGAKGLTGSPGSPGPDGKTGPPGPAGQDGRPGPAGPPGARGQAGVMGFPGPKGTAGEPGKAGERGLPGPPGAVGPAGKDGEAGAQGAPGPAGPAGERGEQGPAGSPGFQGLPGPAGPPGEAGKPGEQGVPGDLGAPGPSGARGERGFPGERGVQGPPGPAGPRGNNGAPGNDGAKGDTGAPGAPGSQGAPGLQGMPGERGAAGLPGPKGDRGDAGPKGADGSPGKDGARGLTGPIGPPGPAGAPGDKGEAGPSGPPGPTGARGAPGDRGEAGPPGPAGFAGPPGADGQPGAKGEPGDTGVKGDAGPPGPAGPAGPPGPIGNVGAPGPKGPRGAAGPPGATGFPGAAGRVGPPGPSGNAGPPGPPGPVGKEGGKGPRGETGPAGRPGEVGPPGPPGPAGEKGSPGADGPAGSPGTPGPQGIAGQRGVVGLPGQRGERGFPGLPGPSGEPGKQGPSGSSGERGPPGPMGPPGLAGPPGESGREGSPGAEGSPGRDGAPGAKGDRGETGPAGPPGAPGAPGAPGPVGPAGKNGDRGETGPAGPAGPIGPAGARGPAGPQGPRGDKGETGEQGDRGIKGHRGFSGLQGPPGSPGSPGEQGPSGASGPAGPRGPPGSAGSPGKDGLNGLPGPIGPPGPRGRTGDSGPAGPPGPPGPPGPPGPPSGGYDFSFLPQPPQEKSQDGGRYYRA
T1 sequence (Q01149 86-1125, chain 2 of 2): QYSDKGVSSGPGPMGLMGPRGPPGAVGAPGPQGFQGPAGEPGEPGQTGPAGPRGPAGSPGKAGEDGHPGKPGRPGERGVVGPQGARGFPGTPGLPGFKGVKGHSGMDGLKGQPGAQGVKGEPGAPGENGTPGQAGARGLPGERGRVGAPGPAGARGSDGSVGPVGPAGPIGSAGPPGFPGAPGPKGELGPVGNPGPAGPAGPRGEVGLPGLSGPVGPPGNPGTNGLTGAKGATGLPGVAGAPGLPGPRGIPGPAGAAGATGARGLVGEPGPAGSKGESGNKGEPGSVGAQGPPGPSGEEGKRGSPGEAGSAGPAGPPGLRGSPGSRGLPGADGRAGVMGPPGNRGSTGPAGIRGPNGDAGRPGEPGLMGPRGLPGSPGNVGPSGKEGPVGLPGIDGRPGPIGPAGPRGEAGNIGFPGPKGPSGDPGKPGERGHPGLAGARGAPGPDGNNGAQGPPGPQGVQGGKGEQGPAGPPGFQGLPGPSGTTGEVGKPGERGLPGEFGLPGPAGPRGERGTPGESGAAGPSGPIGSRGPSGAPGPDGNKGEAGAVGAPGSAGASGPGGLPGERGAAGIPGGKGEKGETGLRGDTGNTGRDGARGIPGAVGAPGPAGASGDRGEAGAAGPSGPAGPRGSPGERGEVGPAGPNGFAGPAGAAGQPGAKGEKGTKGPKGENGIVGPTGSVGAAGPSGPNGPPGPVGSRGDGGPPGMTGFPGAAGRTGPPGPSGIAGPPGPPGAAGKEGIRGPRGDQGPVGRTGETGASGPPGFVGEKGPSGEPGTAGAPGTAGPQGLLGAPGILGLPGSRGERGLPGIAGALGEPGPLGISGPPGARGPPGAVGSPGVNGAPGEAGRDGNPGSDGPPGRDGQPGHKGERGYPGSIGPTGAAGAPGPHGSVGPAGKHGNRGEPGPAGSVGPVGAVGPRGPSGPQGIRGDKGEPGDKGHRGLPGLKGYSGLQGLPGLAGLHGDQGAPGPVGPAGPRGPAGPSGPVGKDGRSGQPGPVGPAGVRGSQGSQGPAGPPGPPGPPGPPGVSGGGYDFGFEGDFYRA

B1: NC410, LAIR-2 human IgG1 Fc fusion protein (Fc fusion)
chain: QEGALPRPSISAEPGTVISPGSHVTFMCRGPVGVQTFRLEREDRAKYKDSYNVFRLGPSESEARFHIDSVSEGNAGLYRCLYYKPPGWSEHSDFLELLVKESSGGPDSPDTEPGSSAGTVPGTEASGFDAP
Regarding B1, the koff with mouse collagen I [1] worked out at 0.000194 s⁻¹; with rat collagen III [2], 0.000433 s⁻¹; with rat collagen I [3], 0.000241 s⁻¹; with human collagen III [4] it was 0.000241 s⁻¹; with human collagen I [5], 0.000186 s⁻¹; with mouse collagen I [6], 0.000194 s⁻¹. For the same molecule, the off-rate (koff) turned out to be 0.000432 s⁻¹ in the assay with rat collagen III [7], 0.000241 s⁻¹ in the assay with rat collagen I [8], 0.000241 s⁻¹ with human collagen III [9] and 0.000184 s⁻¹ in the assay with human collagen I [10]. The Kd with mouse collagen I [11] is 12.5 nM; with rat collagen III [12], 115 nM; in the assay with rat collagen I [13], 3.74 nM; with human collagen III [14], 47 nM; with human collagen I [15], 17.2 nM; with mouse collagen I [16] it was 0.0918 nM. Further, the Kd in the assay with rat collagen III [17] turned out to be 0.878 nM; in the assay with rat collagen I [18] it was 0.0387 nM; with human collagen III [19] it was 0.51 nM; with human collagen I [20], 0.126 nM.

The values above are taken from doi:10.1101/2020.10.21.349480 (2020).
